In PMC5605996:

Target: GST fusion of the SET domain of Trithorax, GST-TrxSET (Drosophila)
Test: pull-down; 1 μg GST-E(z)SET or GST-TrxSET immobilised on GSH-agarose, mixed 2 h at 4 °C with pre-cleared reticulocyte lysate holding 35S-Asx or its deletion fragments; washes with 0.6 M NaCl, pH 7.9; SDS-PAGE and autoradiography, densitometry relative to GST

GST fusion of the SET domain of Trithorax, GST-TrxSET (Drosophila), sequence (P20659 3583-3709): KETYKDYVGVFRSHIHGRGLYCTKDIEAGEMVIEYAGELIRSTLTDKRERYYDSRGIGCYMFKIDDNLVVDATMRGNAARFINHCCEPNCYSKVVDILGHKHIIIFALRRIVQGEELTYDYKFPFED

fold weaker than the Asx-E(z)(SET) interaction: 5 fold
Substance: full-length Additional sex combs (Asx), 35S-methionine-labelled, in vitro translated, A(1-1669) (from UniProt Q9V727 1-1669) (natural protein)
